Data reported in PMC3233575.

Assays:
[1] = target: CHO-expressed soluble CD4 (UniProt P01730)
[2] = target: soluble recombinant DC-SIGN, entire extracellular domain (residues 70-404) (UniProt Q9NNX6); assay: acoustic biosensor (RapID4); soluble DC-SIGN amine-coupled, BSA on the control cell; purified or unpurified inactivated virus 34-250 nM (by p24, 2500 gag per virion); Langmuir kinetic model
[3] = target: HIV-1 BX08 gp140 (soluble, trimeric ectodomain of the envelope glycoprotein, residues 31-663) (HIV-1 strain 92FR_BX08 (clade B, R5)); assay: SPR; gp140 immobilised by direct amine coupling on CM5 (560 RU BX08, 620 RU IIIB); fluid phase DC-SIGN 50-600 nM or Langerin 25-200 nM; HBS-P pH 7.4 with 10 mM CaCl2; heterogeneous analyte model (KD2 oligomer, KD1 monomer)
[4] = target: HIV-1 IIIB gp140 (soluble, trimeric ectodomain of the envelope glycoprotein, residues 31-665) (HIV-1 strain IIIB (clade B, X4), molecular clone pBH10) (UniProt P03375); assay: as above
[5] = target: HIV-1 BX08 gp140 (soluble, trimeric ectodomain of the envelope glycoprotein, residues 31-663) (HIV-1 strain 92FR_BX08 (clade B, R5))
[6] = target: HIV-1 IIIB virus particles (envelope glycoprotein on virions) (HIV-1 strain IIIB (clade B)) (UniProt P03375)

Chain of soluble recombinant DC-SIGN, entire extracellular domain (residues 70-404) (from UniProt Q9NNX6-1 70-404) (domain or fragment) (Q9NNX6 70-404): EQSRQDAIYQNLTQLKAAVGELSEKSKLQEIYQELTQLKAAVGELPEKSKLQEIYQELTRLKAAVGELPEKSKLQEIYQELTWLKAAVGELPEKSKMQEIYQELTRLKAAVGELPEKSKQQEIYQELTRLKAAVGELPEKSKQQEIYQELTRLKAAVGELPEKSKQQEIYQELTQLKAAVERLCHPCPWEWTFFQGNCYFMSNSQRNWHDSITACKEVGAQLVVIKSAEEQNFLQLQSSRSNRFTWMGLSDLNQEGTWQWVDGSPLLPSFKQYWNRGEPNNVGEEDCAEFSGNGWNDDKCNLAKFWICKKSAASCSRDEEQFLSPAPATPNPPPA
Chain of soluble recombinant DC-SIGN, entire extracellular domain (residues 70-404) (UniProt Q9NNX6) (Q9NNX6 70-404): as above
Chain of soluble recombinant Langerin, full extracellular domain (residues 56-328) (Q9UJ71 56-328): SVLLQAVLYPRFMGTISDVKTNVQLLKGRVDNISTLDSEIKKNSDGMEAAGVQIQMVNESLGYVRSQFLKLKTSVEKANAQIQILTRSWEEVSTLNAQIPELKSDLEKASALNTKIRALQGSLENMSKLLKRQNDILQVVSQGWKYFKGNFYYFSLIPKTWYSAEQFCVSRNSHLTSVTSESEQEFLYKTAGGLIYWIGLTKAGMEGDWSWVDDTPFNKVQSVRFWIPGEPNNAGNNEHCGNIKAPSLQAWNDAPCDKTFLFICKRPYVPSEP

HIV-1 IIIB virus particles (envelope glycoprotein on virions) (from UniProt P03375 33-511; P03375 512-856) (complex)
maximum enhancement of p24 release from PM1 cells infected with HIV-1 IIIB pre-incubated with soluble DC-SIGN at <1 nM, against no treatment [1]: 15.3 fold | Kd [2]: 96 nM

soluble recombinant Langerin, full extracellular domain (residues 56-328) (from UniProt Q9UJ71 56-328) (domain or fragment)
KD2 (trimeric form, heterogeneous analyte model) [3]: 0.024 µM | KD2 (trimeric form, heterogeneous analyte model) [4]: 0.011 µM

soluble recombinant DC-SIGN, entire extracellular domain (residues 70-404) (from UniProt Q9NNX6-1 70-404) (domain or fragment)
IC50 of soluble DC-SIGN for inhibition of HIV-1 BX08 replication in PM1 cells (p24 release, 10 days); pair said to be blocked: envelope protein with CD4 [5]: 2.5 nM | IC50 of soluble DC-SIGN for inhibition of HIV-1 IIIB replication in PM1 cells (p24 release, 10 days); pair said to be blocked: envelope protein with CD4 [6]: 4 nM | KD2 (tetrameric form, heterogeneous analyte model) [3]: 0.062 µM | KD2 (tetrameric form, heterogeneous analyte model) [4]: 0.063 µM

HIV-1 BX08 gp140 (soluble, trimeric ectodomain of the envelope glycoprotein, residues 31-663) (domain or fragment)
maximum enhancement of p24 release from PM1 cells infected with HIV-1 BX08 pre-incubated with soluble DC-SIGN at <1 nM, against no treatment [1]: 3.6 fold

HIV-1 IIIBx virus particles (envelope glycoprotein on virions), CD4-independent variant of IIIB (from UniProt P03375 33-511; P03375 512-856) (complex)
Kd [2]: 20 nM
